# Data from the Human Domainome abundance scans (Beltran et al. 2025).
# ± gives the uncertainty stated by the source.
# B1: Cold shock protein CspB, residues 1 to 66; numbered along this chain, P41016 (parent)
# chain: MQRGKVKWFNNEKGYGFIEVEGGSDVFVHFTAIQGEGFKTLEEGQEVSFEIVQGNRGPQAANVVKL
# Variants of: B1
# Assay: abundance fitness (aPCA) (normalised: wild type 0, dead -1); higher = more abundant; growth selection in yeast, the domain comes from the species named
# Conditions: Bacillus caldolyticus
row,Variant,abundance fitness
1,K7W,-0.49 ± 0.057
2,K7R,-0.045 ± 0.034
3,K7C,-0.003 ± 0.035
4,K7L,-0.058 ± 0.027
5,I51W,-0.041 ± 0.039
6,I51G,-0.079 ± 0.042
7,V52C,-0.014 ± 0.077
8,V52F,-0.029 ± 0.064
9,K5W,-0.052 ± 0.03
10,Q34I,-0.169 ± 0.087
11,Q34R,0.001 ± 0.034
12,Q34S,-0.003 ± 0.047
13,G14S,-0.123 ± 0.029
14,G14P,-0.91 ± 0.073
15,G14V,-0.778 ± 0.04
16,G14H,-0.047 ± 0.072
17,G14Y,-0.445 ± 0.07
18,G14A,-0.175 ± 0.035
19,Q45D,-0.104 ± 0.085
20,Q45V,-0.063 ± 0.039
21,Q45E,-0.003 ± 0.047
22,E12W,0.005 ± 0.04
23,E12A,0.036 ± 0.033
24,E12M,0.004 ± 0.043

row,Variant,abundance fitness
1,E12F,0.006 ± 0.034
2,E19N,-0.003 ± 0.083
3,E19S,0.016 ± 0.031
4,V47L,-0.332 ± 0.23
5,F49V,-0.076 ± 0.03
6,F49L,-0.007 ± 0.029
7,F49R,-0.968 ± 0.088
8,V20L,0 ± 0.029
9,V20H,0.094 ± 0.14
10,V20M,-0.018 ± 0.049
11,Q53R,-0.002 ± 0.043
12,D25N,-0.047 ± 0.08
13,D25Q,-0.073 ± 0.054
14,D25T,-0.073 ± 0.041
15,G54D,-0.07 ± 0.067
16,G44H,0.014 ± 0.083
17,G44R,-0.013 ± 0.034
18,G44F,-0.126 ± 0.059
19,G44L,-0.076 ± 0.031
20,E42T,-0.011 ± 0.052
21,E42H,0.008 ± 0.11
22,K39P,-0.149 ± 0.035
23,K39C,-0.08 ± 0.051
24,E46G,-0.017 ± 0.04

row,Variant,abundance fitness
1,E46L,0.014 ± 0.03
2,T40F,-0.009 ± 0.055
3,T40D,-0.112 ± 0.052
4,T40L,-0.087 ± 0.026
5,T40C,-0.006 ± 0.062
6,E50S,-0.029 ± 0.036
7,L41R,-0.625 ± 0.03
8,L41S,-0.433 ± 0.039
9,L41F,-0.199 ± 0.047
10,L41G,-0.355 ± 0.034
11,L41V,-0.042 ± 0.033
12,G37P,-0.119 ± 0.048
13,G37L,-0.126 ± 0.029
14,G37Y,-0.074 ± 0.059
15,G57E,-0.213 ± 0.045
16,H29M,-0.274 ± 0.13
17,H29T,-0.28 ± 0.12
18,I33G,-0.41 ± 0.033
19,I33R,-0.484 ± 0.039
20,I33M,-0.144 ± 0.04
21,G4T,-0.77 ± 0.039
22,G4C,-0.905 ± 0.042
23,G4E,-0.717 ± 0.048
24,G4M,-0.997 ± 0.066

row,Variant,abundance fitness
1,V26F,-0.11 ± 0.054
2,V26H,-0.132 ± 0.075
3,S48A,0.003 ± 0.041
4,S48H,-0.023 ± 0.068
5,S48Y,0.022 ± 0.069
6,G22Y,-0.063 ± 0.062
7,G22S,0.011 ± 0.035
8,G22F,-0.016 ± 0.06
9,G22V,-0.02 ± 0.033
10,V63I,-0.126 ± 0.054
11,V63T,-0.432 ± 0.053
12,V63P,-0.643 ± 0.052
13,F27S,-0.212 ± 0.03
14,F27W,-0.102 ± 0.035
15,T31Q,-0.132 ± 0.061
16,T31A,-0.134 ± 0.049
17,T31M,-0.13 ± 0.044
18,Q59V,-0.029 ± 0.039
19,Q59F,0.061 ± 0.056
20,Q59L,0.016 ± 0.025
21,Q59H,-0.02 ± 0.068
22,Q59K,0.059 ± 0.055
23,Q59W,-0.029 ± 0.036
24,Q59C,-0.05 ± 0.061

row,Variant,abundance fitness
1,K65R,0.004 ± 0.044
2,K65Y,-0.13 ± 0.047
3,L66M,-0.018 ± 0.057
4,L66E,-0.01 ± 0.12
5,L66Y,-0.054 ± 0.12
6,G16S,-1.01 ± 0.054
7,G16Y,-0.946 ± 0.099
8,F9K,-0.389 ± 0.047
9,F9V,-0.239 ± 0.039
10,F9M,-0.233 ± 0.045
11,E21I,0.034 ± 0.069
12,E21S,-0.009 ± 0.036
13,V64T,-0.012 ± 0.067
14,V64M,-0.064 ± 0.066
15,V64L,-0.015 ± 0.038
16,V64F,0.011 ± 0.046
17,V64H,-0.057 ± 0.099
18,V64W,-0.042 ± 0.053
19,N11L,-0.003 ± 0.036
20,N11H,-0.027 ± 0.07
21,I18F,-0.297 ± 0.044
22,I18D,-1.08 ± 0.31
23,V6D,-1.09 ± 0.11
24,V6S,-0.324 ± 0.036

row,Variant,abundance fitness
1,V28D,-0.912 ± 0.14
2,V28F,-0.062 ± 0.058
3,V28M,-0.153 ± 0.055
4,V28L,-0.107 ± 0.029
5,Q2D,-0.036 ± 0.073
6,Q2M,0.051 ± 0.066
7,Q2T,0.029 ± 0.056
8,Q2N,-0.026 ± 0.12
9,F38M,-0.075 ± 0.046
10,F38R,-0.041 ± 0.031
11,F38V,-0.044 ± 0.03
12,F38E,-0.078 ± 0.043
13,F17Q,-0.161 ± 0.042
14,F17V,-0.165 ± 0.027
15,F17W,-0.084 ± 0.042
16,F17M,-0.139 ± 0.048
17,S24A,-0.011 ± 0.055
18,P58Y,-0.066 ± 0.073
19,P58A,0 ± 0.047
20,Y15H,-0.089 ± 0.072
21,Y15N,-0.256 ± 0.054
22,Y15G,-0.285 ± 0.037
23,G23K,0.052 ± 0.057
24,G23L,-0.003 ± 0.027

row,Variant,abundance fitness
1,G23M,0 ± 0.048
2,G23Y,-0.061 ± 0.048
3,A61E,-0.051 ± 0.048
4,A61D,-0.024 ± 0.073
5,A61C,-0.03 ± 0.047
6,A61P,-0.828 ± 0.062
7,F30Y,0.011 ± 0.041
8,R3W,-0.117 ± 0.041
9,R3G,-0.004 ± 0.031
10,R3I,-0.025 ± 0.081
11,R3D,-0.023 ± 0.069
12,E43H,0.03 ± 0.087
13,E43S,-0.014 ± 0.038
14,E43C,0.032 ± 0.092
15,G35K,-0.112 ± 0.056
16,G35L,-0.127 ± 0.025
17,G35M,0.002 ± 0.035
18,G35Y,-0.068 ± 0.074
19,K13G,-0.131 ± 0.043
20,K13D,-0.09 ± 0.048
21,E36D,-0.019 ± 0.063
22,E36M,-0.085 ± 0.046
23,N55T,-0.256 ± 0.18
